Measured values reported in article PMC2150735.
Like-named read-outs stand apart in the source and are kept apart here.

Experiments:
GST-RanBP3 (human) = assay: pull-down
Crm1-His6 (human) [1] = target: Crm1-His6 (human) (UniProt O14980); assay: ELISA
Crm1-His6 (human) [2] = target: Crm1-His6 (human) (UniProt O14980); assay: ELISA; remark: listed apart in the source

Row | Substance | ratio bound/total at 1 min, with RanBP1 (GST-RanBP3 (human)) | ratio bound/total at 1 min, without RanBP1 (GST-RanBP3 (human)) | ratio bound/total at 10 min, with RanBP1 (GST-RanBP3 (human)) | Kd (Crm1-His6 (human) [1]) | Kd (Crm1-His6 (human) [2])
1 | Crm1-His6 (from UniProt O14980 1-1071) (receptor) | 0.52 | 0.59 | 0.39 |  | 
2 | GST-RanBP3 (natural protein) |  |  |  | 64 nM | 106 nM
